{"source": "paper PMC10951451", "about": "(Current Therapeutic Research, Clinical and Experimental, 2024)", "assay_type": "in vivo, Norwegian domestic pigs (Sus scrofa domesticus)", "details": "for AUC0–∞ with AUC of porcine insulin subtracted: mean (SD)", "note": "Read-outs that look alike come from different tables or passages of the source.", "data": [{"substance": "insulin aspart", "values": [{"measurement": "AUC0–∞ with AUC of porcine insulin subtracted", "setting": "glucagon group: 10 IU insulin aspart sc + 100 µg glucagon, n = 6", "value": "7908 (1159) mU/L/min"}, {"measurement": "Median AUC0–∞ plasma insulin concentration", "setting": "glucagon group: 10 IU insulin aspart sc + 100 µg glucagon", "value": 8419, "unit": "mU/L/min"}, {"measurement": "AUC0–∞ with AUC of porcine insulin subtracted", "setting": "placebo group: 10 IU insulin aspart sc + saline, 1 of 6 pigs excluded", "value": "5372 (994) mU/L/min"}, {"measurement": "Median AUC0–∞ plasma insulin concentration", "setting": "placebo group: 10 IU insulin aspart sc + saline", "value": 6211, "unit": "mU/L/min"}]}]}
